# Laboratory results taken from the supplement of paper PMC10567573.
# B1: CAMK2D (parent)
# chain: IVRLHDSISEEGFHYLVFDLVTGG
# Variants of: B1
# Experiment: protein stability index of a GFP-peptide fusion (GPS, HEK-293T) (PSI 1-6); higher = more stable
# Conditions: c terminus: a fixed tail appended
# 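Also: lentivirally expressed fusions sorted by FACS into six bins by GFP to DsRed ratio, PSI derived from sequencing read proportions per bin multiplied by bin number.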
row,Variant,protein stability index
1,IVRLHNSISEEGFHYLVFDLVTGG,1.95
2,IVRLHMSISEEGFHYLVFDLVTGG,2.4
3,IVRLHPSISEEGFHYLVFDLVTGG,4.25
4,IVRLHASISEEGFHYLVFDLVTGG,3.03
5,IVRLHTSISEEGFHYLVFDLVTGG,4.86
6,IVRLHCSISEEGFHYLVFDLVTGG,2.66
7,IVRWHDSISEEGFHYLVFDLVTGG,1.57
8,IVRQHDSISEEGFHYLVFDLVTGG,1.69
9,IVRSHDSISEEGFHYLVFDLVTGG,1.9
10,IVRHHDSISEEGFHYLVFDLVTGG,2.53
11,IVRPHDSISEEGFHYLVFDLVTGG,2.39
12,IVREHDSISEEGFHYLVFDLVTGG,1.69
13,IVRTHDSISEEGFHYLVFDLVTGG,1.29
14,IVRNHDSISEEGFHYLVFDLVTGG,1.87
15,IVRAHDSISEEGFHYLVFDLVTGG,2.4
16,IVRKHDSISEEGFHYLVFDLVTGG,3.71
17,IVRRHDSISEEGFHYLVFDLVTGG,1.62
18,IVRFHDSISEEGFHYLVFDLVTGG,2.4
19,IVRDHDSISEEGFHYLVFDLVTGG,1.8
20,IVRLSDSISEEGFHYLVFDLVTGG,3.02
21,IVRLFDSISEEGFHYLVFDLVTGG,3.15
22,IVRLIDSISEEGFHYLVFDLVTGG,3.99
23,IVRLCDSISEEGFHYLVFDLVTGG,3.23
24,IVRLRDSISEEGFHYLVFDLVTGG,2.39

row,Variant,protein stability index
1,IVRLDDSISEEGFHYLVFDLVTGG,2.94
2,IVRLPDSISEEGFHYLVFDLVTGG,3.91
3,IVRLNDSISEEGFHYLVFDLVTGG,2.33
4,IVRLKDSISEEGFHYLVFDLVTGG,4.72
5,IVRLYDSISEEGFHYLVFDLVTGG,3.23
6,IVRLHDSISENGFHYLVFDLVTGG,3.39
7,IVRLHDSISEDGFHYLVFDLVTGG,3.32
8,IVRLHDSISEAGFHYLVFDLVTGG,2.79
9,IVRLHDSISEIGFHYLVFDLVTGG,1.56
10,IVRLHDSISELGFHYLVFDLVTGG,3.7
11,IVRLHDSISEFGFHYLVFDLVTGG,3.42
12,IERLHDSISEEGFHYLVFDLVTGG,2.3
13,IDRLHDSISEEGFHYLVFDLVTGG,1.79
14,IMRLHDSISEEGFHYLVFDLVTGG,1.93
15,IKRLHDSISEEGFHYLVFDLVTGG,1.51
16,ILRLHDSISEEGFHYLVFDLVTGG,2.69
17,IIRLHDSISEEGFHYLVFDLVTGG,3.28
18,ITRLHDSISEEGFHYLVFDLVTGG,2.52
19,IARLHDSISEEGFHYLVFDLVTGG,2.29
20,IYRLHDSISEEGFHYLVFDLVTGG,3.12
21,IPRLHDSISEEGFHYLVFDLVTGG,1.46
22,KVRLHDSISEEGFHYLVFDLVTGG,2.05
23,SVRLHDSISEEGFHYLVFDLVTGG,3.07
